Data set [1] deals with T1, DDX1 (DDX1-728) (Homo sapiens, UniProt Q92499 1-728).
T1 sequence: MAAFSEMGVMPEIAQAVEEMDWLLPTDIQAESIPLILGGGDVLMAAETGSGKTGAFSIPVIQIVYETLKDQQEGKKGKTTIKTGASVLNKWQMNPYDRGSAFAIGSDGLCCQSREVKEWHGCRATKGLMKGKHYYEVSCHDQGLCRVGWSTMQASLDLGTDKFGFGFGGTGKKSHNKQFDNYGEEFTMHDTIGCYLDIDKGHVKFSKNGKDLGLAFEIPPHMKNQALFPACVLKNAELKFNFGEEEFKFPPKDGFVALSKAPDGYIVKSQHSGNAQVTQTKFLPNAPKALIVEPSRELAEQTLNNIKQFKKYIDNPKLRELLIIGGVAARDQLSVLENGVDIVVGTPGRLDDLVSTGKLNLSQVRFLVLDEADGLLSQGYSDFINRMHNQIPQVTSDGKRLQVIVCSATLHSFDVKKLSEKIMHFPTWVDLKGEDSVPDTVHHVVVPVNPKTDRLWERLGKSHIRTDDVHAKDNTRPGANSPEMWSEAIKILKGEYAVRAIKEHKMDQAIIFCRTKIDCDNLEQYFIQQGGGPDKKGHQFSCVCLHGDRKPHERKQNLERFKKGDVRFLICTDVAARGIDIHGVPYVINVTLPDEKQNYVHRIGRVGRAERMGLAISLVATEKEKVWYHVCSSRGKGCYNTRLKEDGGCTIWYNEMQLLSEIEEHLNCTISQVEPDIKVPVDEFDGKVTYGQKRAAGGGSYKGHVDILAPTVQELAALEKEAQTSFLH
Description: mantdADP displacement fluorescence titration, global fit.

Data set [2] deals with T1, DDX1 (DDX1-728). Description: EMSA. Background: Mobility shift assays separate free from complexed probe on a gel.

B1: 10mer polyA RNA (ssRNA)
RNA: AAAAAAAAAA
Take B1: binding in the data set with DDX1 (DDX1-728) [1] was put at a Kd of 360 ± 120 nM.

B2: 10mer polyU RNA, FAM (ssRNA)
RNA: UUUUUUUUUU
B2: in the data set with DDX1 (DDX1-728) [2], the binding result is on record as “binds”.

B3: 13mer mixed sequence RNA, FAM (ssRNA)
RNA: AGCACCGUAAAGA
For B3, in the data set with DDX1 (DDX1-728) [2], the binding result is given as “binds”.

These data come from article PMC4357711.
